These results are taken from patent US20040142381A1, “Methods for designing IGF1 receptor modulators for therapeutics” (priority 2002, published 2004).

A word on the Km: it is the concentration of substrate that gives half-maximal velocity.

In data set [1] the test system is T1, synthetic peptide KKKSPGEYVNIEFG, based on the IRS-1 phosphorylation site Tyr 895.
T1 sequence: KKKSPGEYVNIEFG

Data set [2] has as its system T2, synthetic peptide substrate KKEEEEYMMMMG
T2 sequence: KKEEEEYMMMMG

Data set [3] addresses synthetic peptide substrate …. Description: cell-based or functional assay.
Substrate in data set [4]: CC[C@H](C)[C@H](NC(=O)[C@H](CC(N)=O)NC(=O)[C@@H](NC(=O)[C@H](Cc1ccc(O)cc1)NC(=O)[C@H](CCC(=O)O)NC(=O)CNC(=O)[C@@H]1CCCN1C(=O)[C@H](CO)NC(=O)[C@H](CCCCN)NC(=O)[C@H](CCCCN)NC(=O)[C@@H](N)CCCCN)C(C)C)C(=O)N[C@@H](CCC(=O)O)C(=O)N[C@@H](Cc1ccccc1)C(=O)NCC(=O)O
Description: Km of IRS-1 Tyr 895-derived peptide substrate for IGF1RK. It counts as biochemical, human. Particulars: other: peptide as substrate of IGF1RK.

In the case of “IGF1RK (phosphorylation state not stated)”, the Km result in data set [1] is on record as “The Km for this peptide was determined to be 128 µM for IGF1RK”.

In data set [2], IGF1RK, bis-phosphorylated form (2P) displayed a Peptide Km of 130 µM.

IGF1RK, mono-phosphorylated form (1P) had a Peptide Km in data set [2] of 620 µM.

The molecule “IGF1RK, tris-phosphorylated, activated form (3P)” gave a Peptide Km in data set [2] of 120 µM.

As for “IGF1RK, tris-phosphorylated, activated form (3P) (enzyme)”, in data set [3], the Km for peptide ([γ-32P]ATP and phosphocellulose binding assay) came out at 150 µM.

In the case of “IGF1RK, unphosphorylated form (0P): tyrosine kinase domain of the human insulin-like growth factor 1 receptor, residues 956-1,256”, the “induction time of autophosphorylation at varying enzyme concentration (continuous spectrophotometric assay)” value is given as “the phosphorylation reaction was concentration dependent”. In data set [2], this molecule had a Peptide Km of 1300 µM.

B1: IGF1RK (Homo sapiens) (protein)
chain: VYVPDEWEVAREKITMSRELGQGSFGMVYEGVAKGVVKDEPETRVAIKTVNEAASMRERIEFLNEASVMKEFNCHHVVRLLGVVSQGQPTLVIMELMTRGDLKSYLRSLRPEMENNPVLAPPSLSKMIQMAGEIADGMAYLNANKFVHRDLAARNCMVAEDFTVKIGDFGMTRDIYETDYYRKGGKGLLPVRWMSPESLKDGVFTTYSDVWSFGVVLWEIATLAEQPYQGLSNEQVLRFVMEGGLLDKPDNCPDMLFELMRMCWQYNPKMRPSFLEIISSIKEEMEPGFREVSFYYSEENK
notes: encoding residues 956-1,256 of the human insulin-like growth factor 1 receptor (IGF1RK); made in house; host or cells: Spodoptera frugiperda (Sf9) cells, baculovirus
As for B1, in data set [4], the Km stood at 128 µM.
